Measurements as given in paper PMC9302817, “VEGF receptor heterodimers and homodimers are differentially expressed in neuronal and endothelial cell types” (PLoS ONE, 2022).

B1: VEGFR1 (mouse, endogenous in MAEC, MVEC, trigeminal ganglion neurons and mouse tissues) (receptor, UniProt P35969 23-1333, looked up)
chain: YGSGSKLKVPELSLKGTQHVMQAGQTLFLKCRGEAAHSWSLPTTVSQEDKRLSITPPSACGRDNRQFCSTLTLDTAQANHTGLYTCRYLPTSTSKKKKAESSIYIFVSDAGSPFIEMHTDIPKLVHMTEGRQLIIPCRVTSPNVTVTLKKFPFDTLTPDGQRITWDSRRGFIIANATYKEIGLLNCEATVNGHLYQTNYLTHRQTNTILDVQIRPPSPVRLLHGQTLVLNCTATTELNTRVQMSWNYPGKATKRASIRQRIDRSHSHNNVFHSVLKINNVESRDKGLYTCRVKSGSSFQSFNTSVHVYEKGFISVKHRKQPVQETTAGRRSYRLSMKVKAFPSPEIVWLKDGSPATLKSARYLVHGYSLIIKDVTTEDAGDYTILLGIKQSRLFKNLTATLIVNVKPQIYEKSVSSLPSPPLYPLGSRQVLTCTVYGIPRPTITWLWHPCHHNHSKERYDFCTENEESFILDPSSNLGNRIESISQRMTVIEGTNKTVSTLVVADSQTPGIYSCRAFNKIGTVERNIKFYVTDVPNGFHVSLEKMPAEGEDLKLSCVVNKFLYRDITWILLRTVNNRTMHHSISKQKMATTQDYSITLNLVIKNVSLEDSGTYACRARNIYTGEDILRKTEVLVRDSEAPHLLQNLSDYEVSISGSTTLDCQARGVPAPQITWFKNNHKIQQEPGIILGPGNSTLFIERVTEEDEGVYRCRATNQKGAVESAAYLTVQGTSDKSNLELITLTCTCVAATLFWLLLTLFIRKLKRSSSEVKTDYLSIIMDPDEVPLDEQCERLPYDASKWEFARERLKLGKSLGRGAFGKVVQASAFGIKKSPTCRTVAVKMLKEGATASEYKALMTELKILTHIGHHLNVVNLLGACTKQGGPLMVIVEYCKYGNLSNYLKSKRDLFCLNKDAALHMELKKESLEPGLEQGQKPRLDSVSSSSVTSSSFPEDRSVSDVEGDEDYSEISKQPLTMEDLISYSFQVARGMEFLSSRKCIHRDLAARNILLSENNVVKICDFGLARDIYKNPDYVRRGDTRLPLKWMAPESIFDKVYSTKSDVWSYGVLLWEIFSLGGSPYPGVQMDEDFCSRLKEGMRMRTPEYATPEIYQIMLDCWHKDPKERPRFAELVEKLGDLLQANVQQDGKDYIPLNAILTRNSGFTYSTPTFSEDLFKDGFADPHFHSGSSDDVRYVNAFKFMSLERIKTFEELSPNSTSMFEDYQLDTSTLLGSPLLKRFTWTETKPKASMKIDLRIASKSKEAGLSDLPRPSFCFSSCGHIRPVQDDESELGKESCCSPPPDYNSVVLYSSPPA
notes: VEGF receptor 1 (VEGFR-1, flt-1), endogenous in mouse aortic and venous endothelial cell lines, thy1-YFP mouse trigeminal ganglion neurons and mouse tissues; Endogenous protein; also called flt-1; Flt-1; source: endogenous, MAEC and MVEC lysates; endogenous, mouse tissue lysates (thoracic aorta, portal vein, dorsal root ganglia, trigeminal ganglia, cornea); endogenous, fixed MAEC, MVEC and …

Experiments:
[1] = molecular target: the molecule itself; assay: proximity ligation; Duolink PLA on fixed mouse trigeminal ganglion (TG) neuronal cells; anti-VEGFR1 and anti-VEGFR2 with PLUS and MINUS probes (the same antibody with both probes for homodimers); signal only within 40 nm
[2] = molecular target: B1; assay: as above; details: partners not purified
[3] = molecular target: the molecule itself; assay: proximity ligation; Duolink PLA on fixed MVEC; anti-VEGFR1 and anti-VEGFR2 with PLUS and MINUS probes (the same antibody with both probes for homodimers); signal only within 40 nm
[4] = molecular target: B1; assay: as above; details: partners not purified

| mean PLA fluorescence intensity per cell [2] | mean PLA fluorescence intensity per cell [4] | Binder | mean PLA fluorescence intensity per cell [1] | mean PLA fluorescence intensity per cell [3] |
| --- | --- | --- | --- | --- |
| 268000 | 99600 | VEGFR2 (mouse, endogenous in MAEC, MVEC, trigeminal ganglion neurons and mouse tissues) (receptor, UniProt P35918 20-1345, looked up, Endogenous protein; also called KDR; flk-1; source: endogenous, MAEC and MVEC lysates; endogenous, mouse tissue lysates (thoracic aorta, portal vein, dorsal root ganglia, trigeminal ganglia, cornea); endogenous, fixed MAEC, MVEC and trigeminal ganglion neuronal cells) ASVGLPGDFLHPPKLSTQKDILTILANTTLQITCRGQRDLDWLWPNAQRDSEERVLVTECGGGDSIFCKTLTIPRVVGNDTGAYKCSYRDVDIASTVYVYVRDYRSPFIASVSDQHGIVYITENKNKTVVIPCRGSISNLNVSLCARYPEKRFVPDGNRISWDSEIGFTLPSYMISYAGMVFCEAKINDETYQSIMYIVVVVGYRIYDVILSPPHEIELSAGEKLVLNCTARTELNVGLDFTWHSPPSKSHHKKIVNRDVKPFPGTVAKMFLSTLTIESVTKSDQGEYTCVASSGRMIKRNRTFVRVHTKPFIAFGSGMKSLVEATVGSQVRIPVKYLSYPAPDIKWYRNGRPIESNYTMIVGDELTIMEVTERDAGNYTVILTNPISMEKQSHMVSLVVNVPPQIGEKALISPMDSYQYGTMQTLTCTVYANPPLHHIQWYWQLEEACSYRPGQTSPYACKEWRHVEDFQGGNKIEVTKNQYALIEGKNKTVSTLVIQAANVSALYKCEAINKAGRGERVISFHVIRGPEITVQPAAQPTEQESVSLLCTADRNTFENLTWYKLGSQATSVHMGESLTPVCKNLDALWKLNGTMFSNSTNDILIVAFQNASLQDQGDYVCSAQDKKTKKRHCLVKQLIILERMAPMITGNLENQTTTIGETIEVTCPASGNPTPHITWFKDNETLVEDSGIVLRDGNRNLTIRRVRKEDGGLYTCQACNVLGCARAETLFIIEGAQEKTNLEVIILVGTAVIAMFFWLLLVIVLRTVKRANEGELKTGYLSIVMDPDELPLDERCERLPYDASKWEFPRDRLKLGKPLGRGAFGQVIEADAFGIDKTATCKTVAVKMLKEGATHSEHRALMSELKILIHIGHHLNVVNLLGACTKPGGPLMVIVEFCKFGNLSTYLRGKRNEFVPYKSKGARFRQGKDYVGELSVDLKRRLDSITSSQSSASSGFVEEKSLSDVEEEEASEELYKDFLTLEHLICYSFQVAKGMEFLASRKCIHRDLAARNILLSEKNVVKICDFGLARDIYKDPDYVRKGDARLPLKWMAPETIFDRVYTIQSDVWSFGVLLWEIFSLGASPYPGVKIDEEFCRRLKEGTRMRAPDYTTPEMYQTMLDCWHEDPNQRPSFSELVEHLGNLLQANAQQDGKDYIVLPMSETLSMEEDSGLSLPTSPVSCMEEEEVCDPKFHYDNTAGISHYLQNSKRKSRPVSVKTFEDIPLEEPEVKVIPDDSQTDSGMVLASEELKTLEDRNKLSPSFGGMMPSKSRESVASEGSNQTSGYQSGYHSDDTDTTVYSSDEAGLLKMVDAAVHADSGTTLRSPPV | 706000 | 2.58e+06 |
| – | – | B1 | 2200 | 43300 |
